Measured values as given in patent US20260209320A1 (ALCHEMAB THERAPEUTICS, published 2026).

How the values were obtained:
Peptide 1 [1] = biological target: T1, Peptide 1 (human, cyno); test: peptide microarray; Sp C1; IgG 1 µg/ml
T1 peptide: QQQQQQQQPPPPPPP

Peptide 3 [2] = biological target: T2, Peptide 3 (human, cyno); test: peptide microarray; Sp C1; IgG 1 µg/ml
T2 peptide: QQQQQQPPPPPPPPP

Peptide 2 [3] = biological target: T3, Peptide 2 (human, cyno); test: peptide microarray; Sp C1; IgG 1 µg/ml
T3 peptide: QQQQQQQPPPPPPPP

Peptide 18 [4] = biological target: T4, Peptide 18 (cyno); test: peptide microarray; Sp C1; IgG 1 µg/ml
T4 peptide: QQQPPPPPPPPPPPP

Peptide 21 = biological target: T5, Peptide 21 (cyno); test: peptide microarray; Sp C1; IgG 1 µg/ml
T5 peptide: AQPMLPQPQPPPPPP

Epitope 1 [5] = biological target: T6, Epitope 1 (human, cyno); test: peptide microarray; Sp C1; IgG 1 µg/ml
T6 peptide: QQQQPPPPPPPPPPP

Peptide 4 [6] = biological target: T7, Peptide 4 (human, cyno); test: peptide microarray; Sp C1; IgG 1 µg/ml
T7 peptide: QQQQQPPPPPPPPPP

Peptide 22 = biological target: T8, Peptide 22 (cyno); test: peptide microarray; Sp C1; IgG 1 µg/ml
T8 peptide: QPMLPQPQPPPPPPR

Peptide 26 = biological target: T9, Peptide 26 (cyno); test: peptide microarray; Sp C2; IgG 1 µg/ml
T9 construct: the array is said to hold 15-mers
T9 peptide: QPPPPPPPPPPPPQL

Peptide 28 = biological target: T10, Peptide 28 (cyno); test: peptide microarray; Sp C2; IgG 1 µg/ml
T10 peptide: QPMLPQPQPPPPPPP

Peptide 31 = biological target: T11, Peptide 31 (cyno); test: peptide microarray; Sp C2; IgG 1 µg/ml
T11 peptide: LPQPQPPPPPPPPPP

Peptide 1 [7] = biological target: T1, Peptide 1; test: peptide microarray; Sp C2; IgG 1 µg/ml
Peptide 18 [8] = biological target: T4, Peptide 18; test: peptide microarray; Sp C2; IgG 1 µg/ml
Epitope 1 [9] = biological target: T6, Epitope 1; test: peptide microarray; Sp C2; IgG 1 µg/ml
Peptide 10 = biological target: T12, Peptide 10 (human); test: peptide microarray; Sp H; IgG 10 µg/ml
T12 peptide: QPLLPQPQPPPPPPP

Peptide 9 = biological target: T13, Peptide 9 (human); test: peptide microarray; Sp H; IgG 10 µg/ml
T13 peptide: AQPLLPQPQPPPPPP

Peptide 11 = biological target: T14, Peptide 11 (human); test: peptide microarray; Sp H; IgG 10 µg/ml
T14 peptide: PLLPQPQPPPPPPPP

Peptide 1 [10] = biological target: T1, Peptide 1; test: peptide microarray; Sp H; IgG 10 µg/ml
Peptide 3 [11] = biological target: T2, Peptide 3; test: peptide microarray; Sp H; IgG 10 µg/ml
Peptide 12 = biological target: T15, Peptide 12 (human); test: peptide microarray; Sp H; IgG 10 µg/ml
T15 peptide: LLPQPQPPPPPPPPP

Peptide 16 = biological target: T16, Peptide 16 (human); test: peptide microarray; Sp H; IgG 10 µg/ml
T16 peptide: PQPPPPPPPPPPGPA

Peptide 2 [12] = biological target: T3, Peptide 2; test: peptide microarray; Sp H; IgG 10 µg/ml
Peptide 13 = biological target: T17, Peptide 13 (human); test: peptide microarray; Sp H; IgG 10 µg/ml
T17 peptide: LPQPQPPPPPPPPPP

Peptide 7 = biological target: T18, Peptide 7 (human); test: peptide microarray; Sp H; IgG 10 µg/ml
T18 peptide: PQAQPLLPQPQPPPP

Peptide 8 = biological target: T19, Peptide 8 (human); test: peptide microarray; Sp H; IgG 10 µg/ml
T19 peptide: QAQPLLPQPQPPPPP

Epitope 1 [13] = biological target: T6, Epitope 1; test: peptide microarray; Sp H; IgG 10 µg/ml
Peptide 17 = biological target: T20, Peptide 17 (human); test: peptide microarray; Sp H; IgG 10 µg/ml
T20 peptide: QPPPPPPPPPPGPAV

Peptide 4 [14] = biological target: T7, Peptide 4; test: peptide microarray; Sp H; IgG 10 µg/ml
Peptide 33 = biological target: T21, Peptide 33 (mouse); test: peptide microarray; Sp M; IgG 10 µg/ml
T21 peptide: QQQQPPPQAPPPPPP

Peptide 38 = biological target: T22, Peptide 38 (mouse); test: peptide microarray; Sp M; IgG 10 µg/ml
T22 peptide: PPQAPPPPPPPPPPQ

Peptide 37 = biological target: T23, Peptide 37 (mouse); test: peptide microarray; Sp M; IgG 10 µg/ml
T23 peptide: PPPQAPPPPPPPPPP

Peptide 32 = biological target: T24, Peptide 32 (mouse); test: peptide microarray; Sp M; IgG 10 µg/ml
T24 peptide: QQQQQPPPQAPPPPP

Peptide 36 = biological target: T25, Peptide 36 (mouse); test: peptide microarray; Sp M; IgG 10 µg/ml
T25 peptide: QPPPQAPPPPPPPPP

Peptide 34 = biological target: T26, Peptide 34 (mouse); test: peptide microarray; Sp M; IgG 10 µg/ml
T26 peptide: QQQPPPQAPPPPPPP

Peptide 42 = biological target: T27, Peptide 42 (mouse); test: peptide microarray; Sp M; IgG 10 µg/ml
T27 peptide: PQPPPQGQPPPPPPP

Peptide 39 = biological target: T28, Peptide 39 (mouse); test: peptide microarray; Sp M; IgG 10 µg/ml
T28 peptide: PQAPPPPPPPPPPQP

Peptide 35 = biological target: T29, Peptide 35 (mouse); test: peptide microarray; Sp M; IgG 10 µg/ml
T29 peptide: QQPPPQAPPPPPPPP

Peptide 43 = biological target: T30, Peptide 43 (mouse); test: peptide microarray; Sp M; IgG 10 µg/ml
T30 peptide: QPPPQGQPPPPPPPL

Peptide 40 = biological target: T31, Peptide 40 (mouse); test: peptide microarray; Sp M; IgG 10 µg/ml
T31 peptide: QAPPPPPPPPPPQPP

Peptide 44 = biological target: T32, Peptide 44 (mouse); test: peptide microarray; Sp M; IgG 10 µg/ml
T32 peptide: PPPQGQPPPPPPPLP

B1: ATL_0005335 (antibody, V domains shown)
VH: EVQLVESGGGLVKPGGSLRLSCAASGFTFNKAWMNWVRQAPGKGLEWVGRIKSGIDGGTTDYAAPVQGRFTISRDDSKNTVYLQMNSLNTEDTAVYYCIPPPYYYYYGLDVWGQGTTVTVSS
VL: QSALTQPASVSGSPGQSITISCTGTSSDIGSYNLVSWYQQHPGNAPKPLIYEGSKRPSGVSARFSGSKSGNTASLTISGLQPEDEADYYCSSYAGFNTLVFGGGTKVTVL
notes: human IgG1; also called ATL_5335
B1 gave a corrected fluorescence intensity (Peptide 1 [1]) of 381, a corrected fluorescence intensity (Peptide 3 [2]) of 520 and a corrected fluorescence intensity (Peptide 2 [3]) of 667. It also gave a corrected fluorescence intensity (Peptide 18 [4]) of 474, a corrected fluorescence intensity (Peptide 21) of 443 and a corrected fluorescence intensity (Epitope 1 [5]) of 391. For the same binder, the corrected fluorescence intensity (Peptide 4 [6]) was 536, the corrected fluorescence intensity (Peptide 22) was 82 and the corrected fluorescence intensity (Peptide 26) was 128. The corrected fluorescence intensity (Peptide 28) was 421, the corrected fluorescence intensity (Peptide 31) was 1000 and the corrected fluorescence intensity (Peptide 1 [7]) was 990. For the same binder, the corrected fluorescence intensity (Peptide 18 [8]) was 1270, the corrected fluorescence intensity (Epitope 1 [9]) was 1400 and the corrected fluorescence intensity (Peptide 10) was 5410. The corrected fluorescence intensity (Peptide 9) was 3470, the corrected fluorescence intensity (Peptide 11) was 6680 and the corrected fluorescence intensity (Peptide 1 [10]) was 729. It also gave a corrected fluorescence intensity (Peptide 3 [11]) of 3190, a corrected fluorescence intensity (Peptide 12) of 8520 and a corrected fluorescence intensity (Peptide 16) of 415. For the same binder, the corrected fluorescence intensity (Peptide 2 [12]) was 2100, the corrected fluorescence intensity (Peptide 13) was 9010 and the corrected fluorescence intensity (Peptide 7) was 326. For the same binder, the corrected fluorescence intensity (Peptide 8) was 1510, the corrected fluorescence intensity (Epitope 1 [13]) was 3840 and the corrected fluorescence intensity (Peptide 17) was 166. The corrected fluorescence intensity (Peptide 4 [14]) was 3680, the corrected fluorescence intensity (Peptide 33) was 3090 and the corrected fluorescence intensity (Peptide 38) was 3520. For the same binder, the corrected fluorescence intensity (Peptide 37) was 7370, the corrected fluorescence intensity (Peptide 32) was 286 and the corrected fluorescence intensity (Peptide 36) was 8300. It also gave a corrected fluorescence intensity (Peptide 34) of 5800, a corrected fluorescence intensity (Peptide 42) of 2280 and a corrected fluorescence intensity (Peptide 39) of 1880. It also gave a corrected fluorescence intensity (Peptide 35) of 7820, a corrected fluorescence intensity (Peptide 43) of 899 and a corrected fluorescence intensity (Peptide 40) of 0. It also gave a corrected fluorescence intensity (Peptide 44) of 1250.

B2: ATL_0005331 (antibody, V domains shown)
VH: EVQLVESGGGLVKPGGSLRLSCAASGFTFNKAWMNWVRQAPGKGLEWVGRIKSGIDGGTTDYAAPVQGRFTISRDDSKNTVYLQMNSLNTEDTAVYYCIPPPYYYYYGLDVWGQGTTVTVSS
VL: QSALTQPRSVSGSPGQSITISCTGTSSDVGSYNLVSWFQQHPGKAPKLIIYEVNKRPSGVPDRFSGSKSGNTASLTVSGLQAEDEADYYCGSYAGTNNVFGTGTKLTVL
notes: human IgG1; also called ATL_5331; Human IgG1 ATL_0005331
In the case of B2, the corrected fluorescence intensity (Peptide 1 [1]) is reported as 0, the corrected fluorescence intensity (Peptide 3 [2]) is reported as 206 and the corrected fluorescence intensity (Peptide 2 [3]) is reported as 118. It also gave a corrected fluorescence intensity (Peptide 18 [4]) of 137, a corrected fluorescence intensity (Peptide 21) of 182 and a corrected fluorescence intensity (Epitope 1 [5]) of 195. The corrected fluorescence intensity (Peptide 4 [6]) was 136, the corrected fluorescence intensity (Peptide 22) was 91 and the corrected fluorescence intensity (Peptide 26) was 141. It also gave a corrected fluorescence intensity (Peptide 28) of 152, a corrected fluorescence intensity (Peptide 31) of 294 and a corrected fluorescence intensity (Peptide 1 [7]) of 259. For the same binder, the corrected fluorescence intensity (Peptide 18 [8]) was 474, the corrected fluorescence intensity (Epitope 1 [9]) was 379 and the corrected fluorescence intensity (Peptide 10) was 2250. It also gave a corrected fluorescence intensity (Peptide 9) of 1260, a corrected fluorescence intensity (Peptide 11) of 2950 and a corrected fluorescence intensity (Peptide 1 [10]) of 0. It also gave a corrected fluorescence intensity (Peptide 3 [11]) of 1670, a corrected fluorescence intensity (Peptide 12) of 3490 and a corrected fluorescence intensity (Peptide 16) of 145. It also gave a corrected fluorescence intensity (Peptide 2 [12]) of 1340, a corrected fluorescence intensity (Peptide 13) of 3960 and a corrected fluorescence intensity (Peptide 7) of 119. The corrected fluorescence intensity (Peptide 8) was 1140, the corrected fluorescence intensity (Epitope 1 [13]) was 2950 and the corrected fluorescence intensity (Peptide 17) was 16.2. For the same binder, the corrected fluorescence intensity (Peptide 4 [14]) was 2620, the corrected fluorescence intensity (Peptide 33) was 633 and the corrected fluorescence intensity (Peptide 38) was 825. It also gave a corrected fluorescence intensity (Peptide 37) of 3160, a corrected fluorescence intensity (Peptide 32) of 0 and a corrected fluorescence intensity (Peptide 36) of 2740. For the same binder, the corrected fluorescence intensity (Peptide 34) was 1540, the corrected fluorescence intensity (Peptide 42) was 884 and the corrected fluorescence intensity (Peptide 39) was 842. For the same binder, the corrected fluorescence intensity (Peptide 35) was 2410, the corrected fluorescence intensity (Peptide 43) was 997 and the corrected fluorescence intensity (Peptide 40) was 234. It also gave a corrected fluorescence intensity (Peptide 44) of 1740.
